This experiment addresses spt16_yeast SPT16 (UniProt P32558).

Chain of spt16_yeast SPT16 (P32558 whole entry): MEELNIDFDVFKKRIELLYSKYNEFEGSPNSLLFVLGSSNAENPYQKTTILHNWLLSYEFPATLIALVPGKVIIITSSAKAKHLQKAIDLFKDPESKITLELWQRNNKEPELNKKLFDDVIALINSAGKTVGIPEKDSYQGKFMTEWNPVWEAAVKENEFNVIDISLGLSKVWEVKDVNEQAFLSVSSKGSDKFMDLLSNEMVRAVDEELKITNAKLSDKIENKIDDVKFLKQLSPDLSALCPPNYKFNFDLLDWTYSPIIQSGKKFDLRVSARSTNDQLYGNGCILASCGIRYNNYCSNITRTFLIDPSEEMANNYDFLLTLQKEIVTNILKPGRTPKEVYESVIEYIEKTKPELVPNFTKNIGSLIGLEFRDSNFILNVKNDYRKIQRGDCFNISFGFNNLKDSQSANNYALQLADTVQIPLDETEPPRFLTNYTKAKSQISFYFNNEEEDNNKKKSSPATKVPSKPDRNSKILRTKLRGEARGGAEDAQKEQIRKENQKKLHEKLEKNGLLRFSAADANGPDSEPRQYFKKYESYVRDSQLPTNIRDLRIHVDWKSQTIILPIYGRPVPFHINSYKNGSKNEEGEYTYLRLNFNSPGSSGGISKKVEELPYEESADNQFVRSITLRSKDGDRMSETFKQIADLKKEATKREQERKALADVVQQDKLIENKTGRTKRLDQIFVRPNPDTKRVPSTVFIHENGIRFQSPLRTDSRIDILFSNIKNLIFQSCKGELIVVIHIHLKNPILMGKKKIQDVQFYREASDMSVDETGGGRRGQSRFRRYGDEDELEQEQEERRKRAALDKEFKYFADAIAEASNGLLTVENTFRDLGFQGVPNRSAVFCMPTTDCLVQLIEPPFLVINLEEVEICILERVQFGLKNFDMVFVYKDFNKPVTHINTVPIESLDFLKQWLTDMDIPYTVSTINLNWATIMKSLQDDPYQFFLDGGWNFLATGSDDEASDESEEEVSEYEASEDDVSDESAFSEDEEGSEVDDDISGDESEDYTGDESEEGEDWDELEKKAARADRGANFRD

Take “Histone H2A type 3 (Homo sapiens) (from UniProt Q7L7L0) Q105A”: the “effect of a mutation on the interaction” value is “decreasing interaction strength”.

The values are drawn from IntAct's records for PubMed 24352239.
